The RNAGym collection of RNA variant scans (doi:10.1093/molbev/msab373)

B1: Azoarcus group I ribozyme (parent)
chain: GUGCCUUGCGCCGGGAAACCACGCAAGGGAUGGUGUCAAAUUCGGCGAAACCUAAGCGCCCGCCCGGGCGUAUGGCAACGCCGAGCCAAGCUUCGGCGCCUGCGCCGAUGAAGGUGUAGAGACUAGACGGCACCCACCUAAGGCAAACGCUAUGGUGAAGGCAUAGUCCAGGGAGUGGCGAAAGUCACACAAACCGG

Variants of: B1
Test: reverse-splicing fitness (ratio to wild type); higher = more active; in vitro selection; Mg2+ level not given
Summary of the method: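 An in vitro group I ribozyme library with randomized positions was T7-transcribed and gel-purified. In triplicate, 10 pmol RNA in EPPS pH 7.5 was reacted with 50 pmoles of a 30-nt RNA substrate for 1 h at 37 °C across several added MgCl2 levels (1–48 mM), then stopped with EDTA. Products were reverse transcribed from a substrate-complementary primer, PCR-amplified and sequenced (HiSeq 4000). Fitness is a variant's read proportion after selection over that before, normalised to wild type.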

Going from A111G A120U A145U C150U C169A U176G to A111G A120U A145U C150U C169A U176A, the reverse-splicing fitness rises from 0.00175 to 0.00375.

First: A111G A120U A145U C150U C169A U176C
Second: A111G A120U A145U C169A U176A
The reverse-splicing fitness of the first is higher: 0.0026 for the first, 0.00236 for the second.

Compared with A111G A120U A145U C169A U176G, A111G A120U A145U C169A U176C is higher in reverse-splicing fitness: 0.00131 for the first, 0.00348 for the second.

First: A111G A145G C150A
Second: A111G A145C C150A C169U U176A
The reverse-splicing fitness of the first is higher: 0.517 for the first, 0.0152 for the second.

First: A111G A145C C150A C169U U176G
Second: A111G A145C C150A C169U U176C
The reverse-splicing fitness of the first is lower: 0.00473 for the first, 0.0113 for the second.

First: A111G A145C C169G
Second: A111G A145C C169U
The reverse-splicing fitness of the first is lower: 0.116 for the first, 0.188 for the second.

First: A111G A145C C169A
Second: A111G A120U A145U C150U C169U U176G
The reverse-splicing fitness of the first is higher: 0.0493 for the first, 0.00321 for the second.

Compared with A111G A120U A145U C150U C169U U176C, A111G A120U A145U C150U C169U U176A is lower in reverse-splicing fitness: 0.0168 for the first, 0.0131 for the second.

Compared with A111G A120U C150G C169G U176A, A111G A120U C150G C169G U176C is lower in reverse-splicing fitness: 0.00427 for the first, 0.00213 for the second.

First: A111G A120U C150G C169G U176G
Second: A111G A145C C150U C169U U176G
The reverse-splicing fitness of the first is lower: 0.00237 for the first, 0.0062 for the second.

First: A111G A145C C150U C169U U176A
Second: A111G A145C C150U C169U U176C
The reverse-splicing fitness of the first is lower: 0.0217 for the first, 0.0247 for the second.

First: A111G A145C C150U C169A U176G
Second: A111G A145C C150U C169A U176A
The reverse-splicing fitness of the first is lower: 0.0059 for the first, 0.0101 for the second.

Going from A111G A145C C150U C169A U176C to A111G A145C C150A U176G, the reverse-splicing fitness rises from 0.00832 to 0.0755.

Compared with A111G A145C C150A U176C, A111G A145C C150A U176A is higher in reverse-splicing fitness: 0.128 for the first, 0.129 for the second.

Compared with A111G A120U C150U U176G, A111G A120U C150U U176C is higher in reverse-splicing fitness: 0.0744 for the first, 0.249 for the second.

Compared with A111G A120U C150U U176A, A111G A120U C150A C169G U176C is lower in reverse-splicing fitness: 0.23 for the first, 0.00454 for the second.

First: A111G A120U C150A C169G U176A
Second: A111G A120U C150A C169G U176G
The reverse-splicing fitness of the first is higher: 0.00675 for the first, 0.00211 for the second.

Going from A111G A120U C150G C169U U176A to A111G A120U C150G C169U U176G, the reverse-splicing fitness falls from 0.00346 to 0.00256.

First: A111G A120U C150G C169U U176C
Second: A111G A120U C169G U176A
The reverse-splicing fitness of the first is lower: 0.00437 for the first, 0.0109 for the second.

Going from A111G A120U C169G U176C to A111G A120U C169G U176G, the reverse-splicing fitness falls from 0.0228 to 0.00198.

First: A111G A120U A145U U176G
Second: A111G A120U A145U U176A
The reverse-splicing fitness of the first is lower: 0.15 for the first, 0.364 for the second.

Going from A111G A120U A145U U176C to A111G A145C C150G C169G U176A, the reverse-splicing fitness falls from 0.431 to 0.00824.

Compared with A111G A145C C150G C169G U176G, A111G A145C C150G C169G U176C is higher in reverse-splicing fitness: 0.00435 for the first, 0.00562 for the second.

First: A111G A120U A145U C150U
Second: A111G A145C C150U C169G U176A
The reverse-splicing fitness of the first is higher: 0.584 for the first, 0.0242 for the second.

Going from A111G A145C C150U C169G U176C to A111G A145C C150U C169G U176G, the reverse-splicing fitness falls from 0.0204 to 0.00586.

Compared with A111G A120U C169A U176G, A111G A120U C169A U176C is higher in reverse-splicing fitness: 0.00161 for the first, 0.00321 for the second.

Compared with A111G A120U C169A U176A, A111G A145C is higher in reverse-splicing fitness: 0.0033 for the first, 0.876 for the second.

First: A111G A145G
Second: A111G A120U C150G C169A U176C
The reverse-splicing fitness of the first is higher: 0.9 for the first, 0.00366 for the second.

Going from A111G A120U C150G C169A U176G to A111G A120U C150G C169A U176A, the reverse-splicing fitness rises from 0.00246 to 0.00453.

Going from A111G A145C C150G C169A U176C to A111G A145C C150G C169A U176G, the reverse-splicing fitness rises from 0.00646 to 0.00652.

First: A111G A145C C150G C169A U176A
Second: A111G A120U C150U
The reverse-splicing fitness of the first is lower: 0.0077 for the first, 0.538 for the second.

First: A111G A120U C150G
Second: A111G A120U C150A
The reverse-splicing fitness of the first is lower: 0.0688 for the first, 0.112 for the second.

Going from A111G A120U A145U C169U U176G to A111G A120U A145U C169U U176C, the reverse-splicing fitness rises from 0.00399 to 0.032.

Compared with A111G A120U A145U C169U U176A, A111G A145C C150A C169A U176G is lower in reverse-splicing fitness: 0.0203 for the first, 0.00629 for the second.

First: A111G A145C C150A C169A U176A
Second: A111G A145C C150A C169A U176C
The reverse-splicing fitness of the first is higher: 0.0101 for the first, 0.00515 for the second.

First: A111G A120U C150A C169U
Second: A111G A120U C150A C169G
The reverse-splicing fitness of the first is higher: 0.0125 for the first, 0.0107 for the second.

Going from A111G A120U C150A C169A to A111G A120U C150G U176A, the reverse-splicing fitness rises from 0.00359 to 0.0102.

Going from A111G A120U C150G U176G to A111G A120U C150G U176C, the reverse-splicing fitness rises from 0.00318 to 0.0248.

Going from A111G A120U C150U C169U to A111G A120U C150U C169G, the reverse-splicing fitness falls from 0.0666 to 0.0472.

Going from A111G A120U C150U C169A to A111G A120U U176A, the reverse-splicing fitness rises from 0.00587 to 0.432.

Compared with A111G A120U U176C, A111G A120U U176G is lower in reverse-splicing fitness: 0.445 for the first, 0.164 for the second.

A111G A120U A145U C150G U176G showed a reverse-splicing fitness of 0.00462.
